For the assay, the system named is human APP. Put plainly: Western blot of APP shedding in U2OS cells transfected with human APP. The class given is cell-based. The conditions noted are these: 31 nM to 1 μM. The protocol: U2OS cells transiently transfected with human APP releases the extracellular portion of APP to the media.
The release of sAPPα in the presence of varying concentrations of IHigG/Fab (31 nM to 1 μM) was evaluated using Western blotting. The Western blots were quantitated using the software Image J and glyceraldehyde 3-phosphate dehydrogenase (GAPDH) as loading control. A vector control was included and U20S cells transfected with APP, but untreated, was used to calculate the fold increase in shedding.
On the technique in general: Immunoblotting shows a protein as a band on a membrane.

B1: 1H5 Fab: Fab fragment of fully human anti-ADAM10 antibody 1H5 (antibody)
heavy: QVQLVESGGGLVKPGGSLRLSCAASGFTFSDYYMSWIRQAPGKGLEWVSYISSSGSTIYYADSVKGRFTISRDNAKNSLYLQMNSLRAEDTAVYYCARDFYDSKIFDYWGQGTLVTVSSASTKGPSVFPLAPSSKSTSGGTAALGCLVKDYFPEPVTVSWNSGALTSGVHTFPAVLQSSGLYSLSSVVTVPSSSLGTQTYICNVNHKPSNTKVDKKVEPKSCDKT
light: DIQMTQSPSSLSASVGDRVTITCRASQSISSYLNWYQQKPGKAPKLLIYAASSLQSGVPSRFSGSGSGTDFTLTISSLQPEDVGVYYCMEGLKTPFTFGPGTKLEIKRTVAAPSVFIFPPSDEQLKSGTASVVCLLNNFYPREAKVQWKVDNALQSGNSQESVTEQDSKDSTYSLSSTLTLSKADYEKHKVYACEVTHQGLSSPVTKSFNRGEC
For B1, the sAPPα shedding entry is reported as “increase”.

(Values after patent publication US20260167677A1, “ANTI-ADAM10 ANTIBODIES AND USES IN TREATMENT OF CANCER” (Memorial Sloan Kettering Cancer Center, priority 2022, published 2026).)
